The values that follow come from paper doi:10.1101/2022.07.21.500954 (bioRxiv, 2022).

The data set concerns the molecule itself. Put plainly: SEC-MALS. (In general: In gel filtration, larger molecules generally elute earlier.)

B1: cerato-platanin-like protein 1 (Cpl1) from Ustilago maydis, tag-free recombinant protein (natural protein, UniProt A0A0D1E4Q7 22-240, looked up)
chain: AVDITFTSGKFNRRDDSTVVKQKNPEFGMNLANQYIIRKGAGLPPAKDVKETYPECKWRHYAGSFGWLDDYNVQCYLSPSYKFHAHSIAKAFKAEPSTKAGACFDTANTDQFPEGVPKYSIGVPYLYMNNLYDRRCKVRAMVKIPKTDEHEEKWVQAWVIDHNLGNWDKDGKENDAYPKDGVLIDTNMYEQFFDKNKKVPDYSKTVPVEWFFLDINTVG
For orientation: stoichiometry N means the number of molecules, sites or subunits per partner or assembly. With B1, the “stoichiometry N” value came out at 2.
